These results are taken from paper PMC9778525.

Test [1] has as its target N-terminus His-tagged annexin V (human) (UniProt P08758). Kind of test: high-speed atomic force microscopy (HS-AFM); 1 uM annexin V added to supported lipid bilayers (DOPC:DOPS:biotinyl-DOPE = 7:2:1) on mica; 10 mM HEPES-NaOH pH 7.0, 2 mM CaCl2, 150 mM NaCl; trimers and 2D crystal lattice (p6) on the membrane.
Test [2] deals with annexin V without any residual amino acids (human) (UniProt P08758). The description is as above.

Substance “N-terminus His-tagged annexin V (from UniProt P08758 1-320) (natural protein)” came in with a stoichiometry N in test [1] of 3. With “annexin V without any residual amino acids (from UniProt P08758 1-320) (natural protein)”, the stoichiometry N in test [2] is 3.

For orientation: stoichiometry N means a count of units in the complex or per binding partner.
